Laboratory results from patent US20200283507A1 (US Dept. of Health and Human Services, published 2020).

T1: Hu/NoV/GI.1/Norwalk/1968/U.S. VLP (human norovirus GI.1, UniProt Q83884 1-530 (Norovirus (strain entry), limits assumed))
T1 construct: mature; full-length VP1 (ORF2) assembled as virus-like particle in baculovirus/Sf9; also called Norwalk VLP; NV
T1 sequence (looked up): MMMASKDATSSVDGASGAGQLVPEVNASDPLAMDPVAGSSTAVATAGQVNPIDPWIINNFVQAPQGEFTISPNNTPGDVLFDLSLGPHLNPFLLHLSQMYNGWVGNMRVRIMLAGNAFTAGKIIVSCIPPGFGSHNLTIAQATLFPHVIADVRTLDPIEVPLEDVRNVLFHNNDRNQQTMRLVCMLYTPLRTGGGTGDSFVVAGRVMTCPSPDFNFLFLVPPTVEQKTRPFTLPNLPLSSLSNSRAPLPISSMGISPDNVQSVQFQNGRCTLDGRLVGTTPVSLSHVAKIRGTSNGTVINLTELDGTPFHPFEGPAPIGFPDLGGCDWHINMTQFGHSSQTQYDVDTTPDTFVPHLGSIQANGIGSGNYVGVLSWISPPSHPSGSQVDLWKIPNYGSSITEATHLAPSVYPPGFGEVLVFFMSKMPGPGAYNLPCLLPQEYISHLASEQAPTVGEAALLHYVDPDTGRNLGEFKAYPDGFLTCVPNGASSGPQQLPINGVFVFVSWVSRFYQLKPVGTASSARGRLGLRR

B1: VHH 1 (VHH)
VHH: QVQLQQSGGGLVQAGGSLRLSCAASGLAFSSYAITWLRQAPGTEREFVALISGSGSSTYYADSVKGRFTISRNNAKNTVYLQMNSLKPEDTAVYYCTASEFLLHPPPPNQKYDYWGQGTQVTVSS
notes: llama VHH, MD2004 (GII.4) library; pHEN6, C-terminal His6 tag; also called 1.1; clone 1
B2: VHH 11.2 (VHH)
VHH: DVQLQASGGGLVQAGGSLRLSCAASTSRFSSYAMGWSRQAPGKQRELVASISSSGLTTNYADSVKGRFTISRDNAKNTVYLQMNSLKPEDTAVYYCKADGRRYSLNEYWGQGTQVTVSS
notes: llama VHH, Norwalk library; pHEN6, C-terminal His6 tag; also called VHH 11.1
B3: VHH 12.2 (VHH)
VHH: DVQLQASGGGLVQAGGSLRLSCAASGSTISSYAMAWYRQAPGKRRELVAHISSGGSTNYADSVKGRFTISRDNAKNTVYLQMNSLKPEDTAVYYCNIYYGGDYYYTGVKPNPWGQGTQVTVSS
notes: llama VHH, Norwalk library; pHEN6, C-terminal His6 tag
B4: VHH 8.1 (VHH)
VHH: QVKLQESGGGLVQAGGSLRLSCAASGFTFATYAMAWYRQAPGKQRELVASISNFGSTAYGDSVKGRFTISRDNAKNTVYLEMNSLKSEDTAVYYCKRVRDVIGRPELWGQGTQVTVSS
notes: as for B3
B5: VHH 9.8 (VHH)
VHH: QVKLQQSGGGLVQAGGSLRLSCAASGTFSRYAMGWFRQAPGKEREFVAAINWTGGSTYYADSVKGRFTISGDNAKNTVYLQMNSLKPGDTAVYYCAAEVHPGDYGLTYMQSQYEYDYWGQGTQVTVSS
notes: llama VHH, Norwalk library; His6 tag
B6: VHH 14.5 (VHH)
VHH: DVQLQASGGGLVQAGGSLRLSCVASARTFSSYAMGWFRQAPGKEREFVAAISWSGASTDYADSVKGRFTISRDNAKKTVYLQMNTLKPEDTAVYYCAAHHITPTGSYYYSEPLPVDMVYDYWGQGTQVTVSS
notes: as for B3
B7: VHH 16 (VHH)
VHH: QVKLQQSGGGLVQPGGSLRLTCAASGFPFSTYAIRWVRRPPGKGLEWVSTIHPDFTTNYADSVSRRFTISRDNAKNTVYLQMNSLKPEDTAVYYCSRGVSGERGQGTQVTVSS
notes: MD2004 library, subtractive biopanning; His6 tag; also called 16.1; clone 16
B8: VHH 19 (VHH)
VHH: QVKLQQSGGGLVQPGGSLRLSCAASGFTFRNYAMSWVRQAPGKGLEWVSAIAAGGAVTKYADSVKGRFTISRDNARDTLYLQMNSLKPEDTAVYYCAKPRDFWYSPEFDFRGQGTQVTVSS
notes: MD2004 library, subtractive biopanning; His6 tag; also called 19.1; clone 19
B9: VHH 3.2 (VHH)
VHH: QVQLQESGGGLVQPGGSLRLSCAASESTPSINTMGWYRQAPGKERELVATITSGGMTNYADSVKGRFTISRDNGKNTVYLQMNSLEPGDTAVYYCNLKRRDLQARFGGYWGQGTQVTVSS
notes: llama VHH, MD2004 library; pHEN6, C-terminal His6 tag; also called clone 3.2
B10: VHH 2.1 (VHH)
VHH: QVQLQESGGGLVQAGGSLRLSCAASGLTFSSYAMGWFHQAPGKEREFVAAINWSGRDTYYADSVKGRFTISRDNRKNTVYLQMNSLKPEDTAVYYCAAAEFFSSGDPLPGMDYWGKGTLVTVSS
notes: llama VHH, MD2004 library; pHEN6, C-terminal His6 tag; also called clone 2.1

Assays:
[1] = target: T2, Hu/NoV/GII.4/CHDC4871/1977/U.S. VLP (human norovirus GII.4); test: VLP ELISA
T2 construct: mature; baculovirus VLP; VP2 may be present

[2] = target: T3, Hu/NoV/GII.4/RockvilleD1/2012/U.S. VLP (human norovirus GII.4); test: VLP ELISA
T3 construct: mature; baculovirus VLP; VP2 may be present

[3] = target: T4, Hu/NoV/GII.4/MD2004/2004/U.S. VLP (human norovirus GII.4); test: VLP ELISA
T4 construct: mature; baculovirus VLP; VP2 may be present; also called MD2004 VLP

[4] = target: T5, Hu/NoV/GII.4/MD145-12/1997/U.S. VLP (human norovirus GII.4); test: VLP ELISA
T5 construct: mature; baculovirus VLP; VP2 may be present

[5] = target: T6, Hu/NoV/GII.4/HS-191/2001/U.S. VLP (human norovirus GII.4); test: VLP ELISA
T6 construct: mature; baculovirus VLP; VP2 may be present

[6] = target: T5, Hu/NoV/GII.4/MD145-12/1997/U.S. VLP; test: blockade ELISA: VLP binding to saliva Ly+
Experimental: (§1) For this assay saliva positive for Ly antigen collected from a secretor individual was used. Saliva was boiled (95° C.) for 10 minutes immediately after collection, centrifuged for 5 minutes at 13000×g and the supernatants stored at −20° C. until used. ELISA 96 well U bottom polyvinyl plates Dynatech (Nunc, Thermo, EEUU) were coated with 100 μl/well of a 1/400 saliva dilution in 50 μM carbonate-bicarbonate buffer, pH 9.6. The plate was incubated overnight at 37° C. in a wet atmosphere. In parallel, serial two-fold dilutions of VHH starting from 8 ug/ml were mixed with 1.5 ug/ml of NoV VLP Norwalk and MD145 and incubated for 1h at 37° C. After 6 washes and a blocking step with 5% dry milk/0.05% Tween₂₀-PBS, 50 ul of each VHH-VLP mixture was transferred to the reaction plate, in duplicate. The assay was developed using a specific polyclonal antiserum made in guinea pig (1:10,000) followed by a peroxidase labeled anti-guinea pig IgG (1:2,000) and ABTS/H₂O₂ as substrate chromogen (KPL), 100 μl per well. Absorbance at 405 nm was measured. Mean % control binding, EC50 and criteria for determination of a blockade VHH were calculated as described above.

[7] = target: T4, Hu/NoV/GII.4/MD2004/2004/U.S. VLP; test: blockade ELISA: VLP binding to PGM type III
Experimental: (§2) Pig Gastric Mucin Type III (PGM) (Sigma Chemicals) was used as a substrate for NoV VLP antibody-blockade assay as previously described. Briefly, PGM was resuspended in PBS at 5 mg/ml and coated onto 96 well U bottom polyvinyl plates Dynatech (Nunc, Thermo, USA) at 10 μg/ml in PBS for 4 hours. Plates were then blocked ON at 4° C. in 5% dry milk in 0.05% Tween₂₀-PBS. […] One hundred μl of VLPs-VHH mix were transferred to the PGM coated plates and incubated for 1 hour. Bound VLPs were detected by specific hyperimmune sera made in guinea pig, followed by anti-guinea pig IgG-HRP (KLP). ABTS/H₂O₂ was used as chromogen/substrate solution. All incubations were performed at room temperature and absorbance at 405 nm was measured. Mean % control binding, EC50 and criteria for determination of a blockade VHH were calculated as described above.

[8] = target: T5, Hu/NoV/GII.4/MD145-12/1997/U.S. VLP; test: blockade ELISA: VLP binding to synthetic HBGA H3
[9] = target: T7, Hu/NoV/GI.1/P7-587/2007/Stromstad/Sweden VLP (human norovirus GI.1); test: VLP ELISA
T7 construct: mature; baculovirus VLP; VP2 may be present; also called Norovirus 2007

[10] = target: T1, Hu/NoV/GI.1/Norwalk/1968/U.S. VLP; test: VLP ELISA
[11] = target: T7, Hu/NoV/GI.1/P7-587/2007/Stromstad/Sweden …; test: cell-based or functional assay
[12] = target: T1, Hu/NoV/GI.1/Norwalk/1968/U.S. VLP; test: blockade ELISA: VLP binding to PGM type III
Experimental: as §2

[13] = target: T1, Hu/NoV/GI.1/Norwalk/1968/U.S. VLP; test: blockade ELISA: VLP binding to saliva Ly+
Experimental: as §1

[14] = target: T1, Hu/NoV/GI.1/Norwalk/1968/U.S. VLP; test: cell-based or functional assay
[15] = target: T8, Hu/NoV/GII.1/Hawaii/1971/U.S. VLP (human norovirus GII.1); test: VLP ELISA
T8 construct: mature; baculovirus VLP; VP2 may be present

[16] = target: T9, Hu/NoV/Snow Mountain/GII.2/U.S. VLP (human norovirus GII.2); test: VLP ELISA
T9 construct: mature; baculovirus VLP; VP2 may be present

[17] = target: T10, Hu/NoV/GII.2/Henryton/1971/U.S. VLP (human norovirus GII.2); test: VLP ELISA
T10 construct: mature; baculovirus VLP; VP2 may be present

[18] = target: T11, Hu/NoV/GII.3/CHDC4031/1988/U.S. VLP (human norovirus GII.3); test: VLP ELISA
T11 construct: mature; baculovirus VLP; VP2 may be present

[19] = target: T12, Hu/GII.6/Bethesda/2012/U.S. VLP (human norovirus GII.6); test: VLP ELISA
T12 construct: mature; baculovirus VLP; VP2 may be present

[20] = target: T13, Hu/NoV/GII.7/DC119/U.S. VLP (human norovirus GII.7); test: VLP ELISA
T13 construct: mature; baculovirus VLP; VP2 may be present

[21] = target: T4, Hu/NoV/GII.4/MD2004/2004/U.S. VLP; test: cell-based or functional assay
[22] = target: T5, Hu/NoV/GII.4/MD145-12/1997/U.S. VLP; test: cell-based or functional assay

Binder | minimum concentration of VHH able to recognize 100 ng of VLP [1] [ng/well] | minimum concentration of VHH able to recognize 100 ng of VLP [2] [ng/well] | minimum concentration of VHH able to recognize 100 ng of VLP [3] [ng/well] | minimum concentration of VHH able to recognize 100 ng of VLP [4] [ng/well] | minimum concentration of VHH able to recognize 100 ng of VLP [5] [ng/well] | EC50 [6] [µg/mL] | EC50 [7] [µg/mL] | minimum concentration of VHH able to recognize 100 ng of VLP [9] [ng/well] | minimum concentration of VHH able to recognize 100 ng of VLP [10] [ng/well] | HAI titer, 0 Rh- RBC [11] [µg/mL] | EC50 [12] [µg/mL] | other results
B1 | 0.25 | 0.25 | 0.5 | 0.5 | 1 | 2.01 | 0.341 | – | – | – | – | EC50 [8]: 0.85 µg/mL
B2 | – | – | – | – | – | – | – | 1 | – | – | – | –
B3 | – | – | – | – | – | – | – | 1 | 1 | 0.8 | 2.59 | –
B4 | – | – | – | – | – | – | – | 1 | – | 0.78 | – | –
B5 | – | – | – | – | – | – | – | – | 0.5 | – | 1.14 | EC50 [13]: 1.72 µg/mL
B6 | – | – | – | – | – | – | – | 0.5 | 0.5 | 0.05 | 0.351 | HAI titer, 0 Rh- RBC [14]: 0.78 µg/mL; EC50 [13]: 1.56 µg/mL
B7 | – | – | 0.5 | – | – | – | 0.767 | – | – | – | – | binding result [10]: no binding
B8 | 1 | 2 | 2 | 4 | 1 | 1.3 | 0.583 | – | – | – | – | minimum concentration of VHH able to recognize 100 ng of VLP [15]: 1 ng/well; minimum concentration of VHH able to recognize 100 ng of VLP [16]: 2 ng/well; minimum concentration of VHH able to recognize 100 ng of VLP [17]: 2 ng/well; minimum concentration of VHH able to recognize 100 ng of VLP [18]: 0.5 ng/well; minimum concentration of VHH able to recognize 100 ng of VLP [19]: 2 ng/well; minimum concentration of VHH able to recognize 100 ng of VLP [20]: 1 ng/well; HAI titer, B Rh+ RBC [21]: 0.39 µg/mL; HAI titer, B Rh+ RBC [22]: 0.39 µg/mL
B9 | 0.5 | 0.5 | 2 | 1 | 0.5 | 0.917 | 2.3 | – | – | – | – | minimum concentration of VHH able to recognize 100 ng of VLP [19]: 0.5 ng/well; HAI titer, B Rh+ RBC [21]: 0.19 µg/mL; HAI titer, B Rh+ RBC [22]: 0.19 µg/mL; EC50 [8]: 0.641 µg/mL
B10 | – | 0.25 | 0.5 | 8 | 0.5 | – | – | – | – | – | – | –
